According to publication PMC8093215 (2021):

Tests used:
hDNMT1 BAH1 domain Y775A = hDNMT1 BAH1 domain Y775A (human, UniProt P26358 728-900, Y775A); experiment: ITC
hDNMT1 BAH1 domain D768A = hDNMT1 BAH1 domain D768A (human, UniProt P26358 728-900, D768A); experiment: ITC
Chain of hDNMT1 BAH1 domain D768A (P26358 728-900 D768A): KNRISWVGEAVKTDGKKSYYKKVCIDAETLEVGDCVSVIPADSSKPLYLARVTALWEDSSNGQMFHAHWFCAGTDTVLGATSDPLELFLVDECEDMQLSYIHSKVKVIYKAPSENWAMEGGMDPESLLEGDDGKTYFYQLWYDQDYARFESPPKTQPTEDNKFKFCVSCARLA

Chain of hDNMT1 BAH1 domain Y775A (P26358 728-900 Y775A): as the sequence (P26358 728-900 D768A) above, with A41D, Y48A counted along it

**Q.** For GAKRHRKVLRDNY (trimethyl-lysine at K20) [H4(14–25)K20me3 peptide], which Kd (hDNMT1 BAH1 domain Y775A) is on record?
**A.** Its Kd is 361 µM.

**Q.** What about the Kd (hDNMT1 BAH1 domain D768A) of the same binder?
**A.** The Kd was 10 µM.
